Results from the Human Domainome abundance scans (Beltran et al. 2025).
± gives the uncertainty stated by the source.

B1: Connector enhancer of kinase suppressor of ras 2, residues 9 to 71; numbered along this chain, Q8WXI2 (parent)
chain: SKWSPSQVVDWMKGLDDCLQQYIKNFEREKISGDQLLRITHQELEDLGVSRIGHQELILEAVD

Variants of: B1
Assay: abundance fitness (aPCA) (normalised: wild type 0, dead -1); higher = more abundant; growth selection in yeast, the domain comes from the species named
Details: Homo sapiens

Row | Variant | abundance fitness
1 | W11G | -0.675 ± 0.04
2 | W11C | -0.834 ± 0.072
3 | W11E | -0.59 ± 0.06
4 | W11L | -0.896 ± 0.041
5 | L37D | -0.254 ± 0.031
6 | E43H | -0.179 ± 0.049
7 | E43V | -0.257 ± 0.036
8 | E43Q | 0.03 ± 0.037
9 | E43D | 0.011 ± 0.034
10 | E43M | -0.165 ± 0.042
11 | E43N | -0.121 ± 0.035
12 | G33P | -0.84 ± 0.069
13 | G33A | -0.745 ± 0.05
14 | G33I | -0.387 ± 0.1
15 | G33S | -0.668 ± 0.04
16 | G33F | -0.198 ± 0.05
17 | G33T | -0.645 ± 0.046
18 | G33E | -0.855 ± 0.092
19 | G33H | -0.669 ± 0.073
20 | G33N | -0.947 ± 0.12
21 | E60I | -0.531 ± 0.056
22 | E60M | -0.226 ± 0.032
23 | E60W | -0.664 ± 0.04
24 | E60R | -0.072 ± 0.025

Row | Variant | abundance fitness
25 | E60T | -0.057 ± 0.03
26 | E60H | -0.111 ± 0.038
27 | E60G | -0.096 ± 0.031
28 | R28M | -0.094 ± 0.03
29 | R28D | -0.043 ± 0.052
30 | R28F | -0.453 ± 0.1
31 | R28V | -0.159 ± 0.031
32 | S4G | -0.128 ± 0.025
33 | S4I | -0.567 ± 0.088
34 | S4T | -0.053 ± 0.047
35 | S4Y | -0.491 ± 0.068
36 | D16Q | -0.293 ± 0.042
37 | D16W | -0.527 ± 0.031
38 | D16S | -0.402 ± 0.022
39 | D16I | -0.615 ± 0.038
40 | D16E | -0.266 ± 0.044
41 | D16K | -0.632 ± 0.038
42 | G14R | -0.3 ± 0.025
43 | G14F | -1.06 ± 0.13
44 | G14M | -0.421 ± 0.043
45 | G14K | -0.264 ± 0.045
46 | G14H | -0.468 ± 0.1
47 | W3P | -0.764 ± 0.16
48 | W3A | -0.653 ± 0.085

Row | Variant | abundance fitness
49 | W3G | -0.597 ± 0.04
50 | W3R | -0.498 ± 0.04
51 | W3N | -0.545 ± 0.083
52 | W3I | -0.053 ± 0.28
53 | V9H | -0.774 ± 0.051
54 | V9D | -0.66 ± 0.052
55 | V9A | -0.064 ± 0.028
56 | V9N | -0.562 ± 0.061
57 | V9K | -0.334 ± 0.044
58 | V9E | -0.374 ± 0.036
59 | V9Q | -0.217 ± 0.044
60 | V9T | -0.11 ± 0.035
61 | V9S | -0.207 ± 0.027
62 | V9R | -0.268 ± 0.025
63 | R38L | -0.377 ± 0.029
64 | R38C | -0.189 ± 0.034
65 | R38G | -0.106 ± 0.026
66 | R38A | -0.031 ± 0.04
67 | R38I | -0.543 ± 0.046
68 | R38H | -0.061 ± 0.043
69 | R38N | -0.098 ± 0.065
70 | I52M | -0.086 ± 0.04
71 | I52T | 0.017 ± 0.035
72 | I52K | 0.048 ± 0.035

Row | Variant | abundance fitness
73 | I52P | 0.038 ± 0.034
74 | I52H | -0.047 ± 0.06
75 | V49K | -0.925 ± 0.037
76 | V49F | -0.866 ± 0.12
77 | V49D | -0.777 ± 0.051
78 | V49Y | -1.07 ± 0.11
79 | V49T | -0.857 ± 0.062
80 | V8F | -0.861 ± 0.051
81 | V8S | -0.749 ± 0.04
82 | V8D | -0.783 ± 0.085
83 | V8K | -0.88 ± 0.064
84 | V8C | -0.716 ± 0.057
85 | H54E | -0.412 ± 0.053
86 | H54K | -0.843 ± 0.052
87 | H54G | -0.887 ± 0.056
88 | H54Q | -0.944 ± 0.093
89 | H54W | -1.27 ± 0.17
90 | H54Y | -0.863 ± 0.081
91 | E56L | -0.158 ± 0.029
92 | E56N | -0.046 ± 0.057
93 | E56G | -0.307 ± 0.031
94 | E56R | -0.009 ± 0.027
95 | E56M | -0.157 ± 0.042
96 | E56I | -0.102 ± 0.099

Row | Variant | abundance fitness
97 | E56P | -0.728 ± 0.063
98 | H41T | -0.031 ± 0.033
99 | H41Y | -0.075 ± 0.049
100 | H41E | -0.076 ± 0.035
101 | H41G | -0.077 ± 0.025
102 | Q20H | 0.049 ± 0.032
103 | Q20I | -0.247 ± 0.063
104 | Q20R | -0.214 ± 0.024
105 | Q20F | -0.179 ± 0.039
106 | E45P | -0.784 ± 0.052
107 | E45M | -0.066 ± 0.033
108 | E45K | 0.021 ± 0.042
109 | I58R | -0.811 ± 0.076
110 | I58Q | -0.696 ± 0.092
111 | I58W | -0.734 ± 0.18
112 | I58A | -0.799 ± 0.099
113 | I58V | -0.374 ± 0.063
114 | K13E | -0.352 ± 0.046
115 | K13V | -0.391 ± 0.026
116 | K13Y | -0.242 ± 0.056
117 | Q7A | -0.211 ± 0.031
118 | Q7F | -0.713 ± 0.064
119 | Q7H | -0.301 ± 0.045
120 | Q7G | -0.457 ± 0.029

Row | Variant | abundance fitness
121 | Q7S | -0.45 ± 0.033
122 | Q7P | -0.666 ± 0.057
123 | Q7W | -0.803 ± 0.051
124 | Q42C | -0.395 ± 0.042
125 | Q42N | -0.228 ± 0.044
126 | D10V | -0.327 ± 0.028
127 | D10M | -0.169 ± 0.031
128 | D10K | -0.161 ± 0.039
129 | D10I | -0.258 ± 0.042
130 | I39L | 0.01 ± 0.026
131 | I39A | -0.424 ± 0.04
132 | I39F | -0.254 ± 0.045
133 | I39N | -0.67 ± 0.053
134 | I39Y | -0.632 ± 0.064
135 | K2Y | -0.012 ± 0.033
136 | K2D | -0.053 ± 0.033
137 | K2M | -0.121 ± 0.11
138 | K2V | -0.133 ± 0.034
139 | K2N | -0.049 ± 0.034
140 | L47F | -0.612 ± 0.072
141 | L47M | -0.083 ± 0.039
142 | L47E | -0.795 ± 0.038
143 | L47S | -0.813 ± 0.041
144 | L47H | -0.785 ± 0.08

Row | Variant | abundance fitness
145 | L47G | -0.857 ± 0.038
146 | V62M | -0.552 ± 0.043
147 | V62P | -0.779 ± 0.077
148 | V62R | -0.061 ± 0.028
149 | V62W | -0.909 ± 0.17
150 | V62K | -0.392 ± 0.12
151 | V62L | -0.258 ± 0.037
152 | V62F | -0.921 ± 0.084
153 | V62N | -0.815 ± 0.057
154 | Q21W | -0.933 ± 0.062
155 | Q21S | -0.118 ± 0.024
156 | Q21R | -0.144 ± 0.026
157 | Q21G | -0.032 ± 0.03
158 | Q21I | -0.088 ± 0.043
159 | Q21K | -0.204 ± 0.039
160 | Q21L | -0.275 ± 0.025
161 | Q21E | -0.076 ± 0.037
162 | R51N | 0.063 ± 0.046
163 | R51F | 0.006 ± 0.033
164 | R51P | -0.021 ± 0.036
165 | R51S | 0.088 ± 0.027
166 | R51W | -0.115 ± 0.036
167 | R51H | 0.018 ± 0.039
